Results taken from patent US20130338033A1, “Diagnostic and Prognostic Markers for Metastasis” (VIRGINIA COMMONWEALTH UNIVERSITY, priority 2011, published 2013).

B1: rhIGFBP-2: recombinant human IGFBP-2 protein (protein, UniProt P18065 36-325, looked up)
Insulin-like growth …: AEVLFRCPPCTPERLAACGPPPVAPPAAVAAVAGGARMPCAELVREPGCGCCSVCARLEGEACGVYTPRCGQGLRCYPHPGSELPLQALVMGEGTCEKRRDAEYGASPEQVADNGDDHSEGGLVENHVDSTMNMLGGGGSAGRKPLKSGMKELAVFREKVTEQHRQMGKGGKHHLGLEEPKKLRPPPARTPCQQELDQVLERISTMRLPDERGPLEHLYSLHIPNCDKHGLYNLKQCKMSLNGQRGECWCVNPNTGKLIQGAPTIRGDPECHLFYNEQQEARGVHTQRMQ

Tests used:
IGFBP-2 = IGFBP-2 ELISA in conditioned media of FM-516 cells infected with Ad.5/3-mda-9; format: cell-based, human; settings: Ad.5/3-mda-9, 1-5 μM (FIG. 4F)
HuVECs [1] = assay: HuVEC proliferation (growth kinetics, trypan blue dye exclusion); format: cell-based, human; settings: HuVECs treated with rhIGFBP-2 (FIG. 3B)
Procedure: FIG. 3 A-H. Pro-angiogenic activity of IGFBP-2. a) Top panel, an antibody-based array comparing the expression levels of regulators of angiogenesis in CM from C8161.9 con-sh and C8161.9-shmda-9 clones was performed as described in Materials and Methods. Bottom panel, graphical representation of the band intensity quantified by densitometry. b) HuVECs were cultured in the presence of recombinant human IGFBP-2 (rhIGFBP-2) protein alone or with neutralizing antibody (NA) and growth kinetics were determined by trypan blue dye exclusion as described in Materials and Methods. Data represents Mean±S.D. c, d & e) HuVECs were treated with rhIGFBP-2 with or without neutralizing antibody (NA) and migration (c), tube formation (d) and vascularization in CAM (e) were analyzed. Data represents Mean±S.D. f) C8161.9 cells were transfected with either scrambled RNA (si-con) or si-IGFBP-2 and CM were analyzed for tube formation on Matrigel (upper panel) and vascularization in CAM (lower panel). g) Pooled clones of C8161.9 cells stably expressing shIGFBP-2 were established and assessed for tumor generation ability in athymic nude mice (n=5, repeated three times). […] Tumor weight was measured at the end of the study. Data represents Mean±S.D. In panel c), d) and g), italicized letters indicate significant differences between groups assessed by Student's t-test (p<0.05). […]

HuVECs [2] = assay: HuVEC migration through Matrigel; format: cell-based, human; settings: HuVECs treated with rhIGFBP-2 (FIG. 3C)
Source text: FIG. 2A-G. Effect of mda-9/syntenin on the angiogenic phenotype of human vascular endothelial cells (HuVECs). a) Time course analysis of growth of HuVECs in co-culture with either C8161.9-con-sh or C8161.9-shmda-9 clones. b) Analysis of tube formation by HuVECs co-cultured with C8161.9-con-sh or C8161.9-shmda-9 clones on Matrigel coated plates grown in serum-starved media conditions. Left panel, photomicrograph, Right panel, graphical representation of quantification of tube formation. Data represents Mean±S.D. c) HuVEC migration towards melanoma cells. […] HuVECs migration was quantified and graphical representation is provided in the lower panel. […] The assay was scored after 18 h. Photomicrograph (Left panel) and graphical quantification of migration (Right panel) is presented. […] Left panel, photomicrograph, Right panel, graphical representation of quantitation of tube formation. […]
FIG. 3 A-H. Pro-angiogenic activity of IGFBP-2. a) Top panel, an antibody-based array comparing the expression levels of regulators of angiogenesis in CM from C8161.9 con-sh and C8161.9-shmda-9 clones was performed as described in Materials and Methods. […] Data represents Mean±S.D. c, d & e) HuVECs were treated with rhIGFBP-2 with or without neutralizing antibody (NA) and migration (c), tube formation (d) and vascularization in CAM (e) were analyzed. […] Tumor weight was measured at the end of the study. […]

HuVECs [3] = assay: Capillary-like tube formation by HuVECs on Matrigel; format: cell-based, human; settings: HuVECs treated with rhIGFBP-2 (FIG. 3D)
Procedure: Tube formation assays were performed as described previously (28) using an In Vitro Angiogenesis Assay Kit (Chemicon). The degree of network formation was quantified using the provider's instruction.

[4] = tested on: chicken chorioallantoic membrane (CAM); assay: Chorioallantoic membrane (CAM) neovascularization assay; format: in vivo; settings: HuVECs treated with rhIGFBP-2 (FIG. 3E)
Procedure: To detect in vivo angiogenesis, we performed CAM assays as described (28). Either cells or CM in a collagen sponge were implanted onto the CAM at day 8 of fertilization. At day 12, CAMs were fixed with 10% formalin; the neovasculature was examined and photographed.
Fertilized chicken eggs (10 eggs per group) was incubated under routine conditions and a square window was opened in the egg shell at the third day of incubation, after removal of 2-3 ml of albumen to detach the shell from the developing CAM. The window was sealed with a glass of the same size and the eggs were returned to the incubator. Either cells or conditioned media with collagen sponge was implanted onto the CAM at day 8 of incubation. At day 12, CAMs were fixed with 10% formalin the neovasculature was examined and photographed.

VEGF-A = VEGF-A expression in HuVECs (real-time PCR, ELISA); format: cell-based, human; settings: HuVECs stimulated with rhIGFBP-2 (FIG. 5A)
Procedure: (§1) FIG. 5A-G. IGFBP-2 upregulates the expression of vascular endothelial growth factor (VEGF-A) through the AKT pathway in HuVECs. a) The expression of VEGF-A mRNA (top panel) and protein (bottom panel) were measured by real-time PCR and ELISA, respectively, after treating HuVECs with the indicated doses of rhIGFBP-2. Data represents Mean±S.D. b) HuVECs were transfected with VEGF-A promoter luciferease reporter plasmid and treated with the indicated concentrations of rhIGFBP-2. 48 h after transfection, cells were harvested for luciferase assays as described in Materials and Methods. c) HuVECs (1×10^6 cells) were treated or untreated with the specified doses of rhIGFBP-2 for the indicated times and expression of pAKT and AKT was analyzed by Western blotting. d) HuVECs were pre-treated with LY294002 (30 min) and then treated with rhIGFBP-2. Top panel, analysis of the expression of pART and AKT by Western blotting. Bottom panel, analysis the expression of VEGF-A by ELISA in the CM. e) HuVECs were treated with rhIGFBP-2 together with anti-αVβ3 integrin antibody or anti-mouse IgG as control. Top panel, analysis of expression of pAKT and AKT by Western blotting. Bottom panel, analysis of expression of VEGF-A by ELISA in the CM. f & g) HuVECs were treated as in “e” and CM was used to analyze tube formation […] and neovascularization in CAM (g). […]

VEGF-A promoter = VEGF-A promoter luciferase reporter assay in HuVECs; format: cell-based, human; settings: HuVECs treated with rhIGFBP-2, 48 h after transfection (FIG. 5B)
Procedure: as §1

AKT = AKT activation (pAKT Western blotting) in HuVECs; format: cell-based, human; settings: rhIGFBP-2 treatment of HuVECs (FIG. 5C)
Procedure: as §1

| Molecule | mda-9/syntenin-induced IGFBP-2 expression (IGFBP-2) | HuVEC proliferation (HuVECs [1]) | HuVEC migration (HuVECs [2]) | HuVEC tube formation (HuVECs [3]) | vascularization in CAM [4] | VEGF-A expression, both RNA and protein (VEGF-A) | VEGF-A promoter activity (VEGF-A promoter) | time to AKT activation (AKT) |
| --- | --- | --- | --- | --- | --- | --- | --- | --- |
| CC(C)(C)n1nc(-c2ccc(Cl)cc2)c2c(N)ncnc21 [PP-2] | dose-dependent decrease |  |  |  |  |  |  |  |
| B1 |  | significantly stimulated | significantly stimulated | significantly stimulated | significant vascularization | dose-dependently up-regulated | dose-dependently up-regulated | ≤ 15 min |
